B1: UBE3A HECT domain, wild type (domain or fragment, human, UniProt Q05086-2 495-852, looked up)
chain: QLNPYLRLKVRRDHIIDDALVRLEMIAMENPADLKKQLYVEFEGEQGVDEGGVSKEFFQLVVEEIFNPDIGMFTYDESTKLFWFNPSSFETEGQFTLIGIVLGLAIYNNCILDVHFPMVVYRKLMGKKGTFRDLGDSHPVLYQSLKDLLEYEGNVEDDMMITFQISQTDLFGNPMMYDLKENGDKIPITNENRKEFVNLYSDYILNKSVEKQFKAFRRGFHMVTNESPLKYLFRPEEIELLICGSRNLDFQALEETTEYDGGYTRDSVLIREFWEIVHSFTDEQKRLFLQFTTGTDRAPVGGLGKLKMIIAKNGPDTERLPTSHTCFNVLLLPEYSSKEKLKERLLKAITYAKGFGML
notes: UBE3A, human, HECT domain; residue numbers follow human UBE3A isoform I (NP_001361390.1); Cloned into pRSFDuet-1 with an octa-histidine-GST double tag and a TEV site; also called WT HECT domain; WT UBE3A; not shown: His8, N-terminal, cleaved; GST, N-terminal, cleaved
B2: UBE3A HECT domain Q588E (domain or fragment, human, UniProt Q05086-2 1-852, looked up)
chain: QLNPYLRLKVRRDHIIDDALVRLEMIAMENPADLKKQLYVEFEGEQGVDEGGVSKEFFQLVVEEIFNPDIGMFTYDESTKLFWFNPSSFETEGEFTLIGIVLGLAIYNNCILDVHFPMVVYRKLMGKKGTFRDLGDSHPVLYQSLKDLLEYEGNVEDDMMITFQISQTDLFGNPMMYDLKENGDKIPITNENRKEFVNLYSDYILNKSVEKQFKAFRRGFHMVTNESPLKYLFRPEEIELLICGSRNLDFQALEETTEYDGGYTRDSVLIREFWEIVHSFTDEQKRLFLQFTTGTDRAPVGGLGKLKMIIAKNGPDTERLPTSHTCFNVLLLPEYSSKEKLKERLLKAITYAKGFGML
notes: UBE3A, human, HECT domain with the patient variant Q588E; residue numbers follow human UBE3A isoform I (NP_001361390.1); Made by site-directed mutagenesis of the m1 construct; Q588E is a variant found in individuals (ClinVar); also called Q588E HECT domain; UBE3A Q588E; not shown: His8, N-terminal, cleaved; GST, N-terminal, cleaved

Biological target: T1, N-terminal fluorescein-labeled ubiquitin (UniProt P0CG48 1-76, fluorescein on the N-terminus)
T1 construct: source: bought: Anaspec
Assay: fluorescence polarisation; 1 uM fluorescein-labeled ubiquitin with varied concentrations of UBE3A HECT domain, 384-well plate, 30 °C; one-site specific binding model
Conditions: both partners purified

| Binder | Kd [µM] |
| --- | --- |
| B1 | 65.7 ± 28.5 |
| B2 | 18 ± 1.5 |

Reference: paper PMC8635412, “Identification of disease-linked hyperactivating mutations in UBE3A through large-scale functional variant analysis” (Nature Communications, 2021)
